From US20100313281A1 (published 2010)

Target: the molecule itself
Test: western blot of BHK media, reducing (29 kDa) against non-reducing (49 kDa) conditions
Description: Following selection for stable cell transfectants, media isolated from pools was analyzed by western blot under reducing and non-reducing conditions using a Ztgfβ-9 antibody or an anti-EE epitope tag antibody. […] Under non-reducing conditions, Ztgfβ-9 protein migrated as at 49 kDa species. […] C-terminal EE tagged human Ztgfβ-9 expressed in BHK cells was also anti-EE affinity purified and its N-terminal sequence determined.

B1: Human Ztgfβ-9 protein (ligand)
chain: AGAPRAGRRPARPRGCADRPEELLEQLYGRLAAGVLSAFHHTLQLGPREQARNASCPAGGRPADRRFRPPTNLRSVSPWAYRISYDPARYPRYLPEAYCLCRGCLTGLFGEEDVRFRSAPVYMPTVVLRRTPACAGGRSVYTEAYVTIPVGCTCVPEPEKDADSINSSIDKQGAKLLLGPNDAPAGP
notes: also called transforming growth factor beta-9
B1: binds.
